The values that follow come from IntAct's records for PubMed 15665853.

To fix the notation:
B1: Spindle assembly abnormal protein 5 (Caenorhabditis elegans), Q20010 (parent)
chain: MNNYDDLPCSIYFKKPTVQEFVDQPRVFEDSEVPAFQEVLQLPQERTKPPVPSTQPIVAAVEVAKKKSCLSAPKPRKEPPSHPALRQKTVAFGKTVNVSQTVEGTSRNSKKVLASTMSAQNTTTTEEQAAENWRDAMKTELQTIRTEIQEETARRQEELNAQNLVKMQELMSNFFQKITIPKQQAIEPVEKDKENFHESPRQSRQQKPASKIASAREVIKRDGVIPPEALTIIEQRLRSDPMFRQQIDNVLADAECDANRAAYSPPPPMSEVRYGSGVNPALMRETLTVERSIRYDNGLASIDSRQWTNERRDNRAPDSYRTYEPDQPCHSLYQKGQSISYYPSEAAGKTTARNNRTGYYVEDSSDHEEDVVVNKRGQNYHEQAVPETPAERERRIREKYARRK
partner: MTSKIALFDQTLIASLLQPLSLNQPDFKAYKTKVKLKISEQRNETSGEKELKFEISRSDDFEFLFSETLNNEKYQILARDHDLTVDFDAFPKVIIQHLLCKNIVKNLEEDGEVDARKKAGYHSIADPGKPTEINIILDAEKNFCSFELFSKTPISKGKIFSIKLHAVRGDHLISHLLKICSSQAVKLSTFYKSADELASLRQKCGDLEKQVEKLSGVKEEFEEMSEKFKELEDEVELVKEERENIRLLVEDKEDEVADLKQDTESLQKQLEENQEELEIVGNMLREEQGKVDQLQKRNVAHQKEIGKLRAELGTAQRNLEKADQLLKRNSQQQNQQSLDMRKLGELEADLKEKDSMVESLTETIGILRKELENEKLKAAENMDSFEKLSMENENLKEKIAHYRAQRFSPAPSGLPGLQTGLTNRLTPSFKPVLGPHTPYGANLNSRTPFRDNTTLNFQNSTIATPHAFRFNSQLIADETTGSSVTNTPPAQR

In the test the parent is B1. To be noted: with sas6_caeel sas-6, O62479.
With R397C, the “effect of a mutation on the interaction” value is on record as “decreasing interaction”.
